From publication PMC7156742, “RNA-DNA strand exchange by the Drosophila Polycomb complex PRC2”

Experiments:
PRC2 = PRC2 (UniProt P42124;Q24338;Q9NJG9;Q24572 1-760;1-425;1-900;1-430); assay: filter binding; 12 mM Hepes pH 7.9, 0.12 mM EDTA, 120 nM KCl (so in the source); probably mM), 1 mM DTT, 0.01% NP40, 12% glycerol, 0.01 nM probe, 30 min at 30 °C; EMSA plus 50 ng/uL BSA; settings: protein: recombinant; tags: 6xHis-E(Z); FLAG on Esc or Su(Z)12; copies: 1;1;1;1; label: Cy5 or Cy3 on DNA R; 32P at unlabelled 5' ends; blunt
PRC1ΔPh = PRC1ΔPh (UniProt P35820;P26017;Q9VB08 1-1601;1-390;1-435); assay: as above; settings: protein: recombinant; tags: FLAG; copies: 1;1;1; label: Cy5 or Cy3 on DNA R; 32P at unlabelled 5' ends; blunt
Sequence of PRC1ΔPh (P35820 whole entry, stated change not applied, chain 1 of 3): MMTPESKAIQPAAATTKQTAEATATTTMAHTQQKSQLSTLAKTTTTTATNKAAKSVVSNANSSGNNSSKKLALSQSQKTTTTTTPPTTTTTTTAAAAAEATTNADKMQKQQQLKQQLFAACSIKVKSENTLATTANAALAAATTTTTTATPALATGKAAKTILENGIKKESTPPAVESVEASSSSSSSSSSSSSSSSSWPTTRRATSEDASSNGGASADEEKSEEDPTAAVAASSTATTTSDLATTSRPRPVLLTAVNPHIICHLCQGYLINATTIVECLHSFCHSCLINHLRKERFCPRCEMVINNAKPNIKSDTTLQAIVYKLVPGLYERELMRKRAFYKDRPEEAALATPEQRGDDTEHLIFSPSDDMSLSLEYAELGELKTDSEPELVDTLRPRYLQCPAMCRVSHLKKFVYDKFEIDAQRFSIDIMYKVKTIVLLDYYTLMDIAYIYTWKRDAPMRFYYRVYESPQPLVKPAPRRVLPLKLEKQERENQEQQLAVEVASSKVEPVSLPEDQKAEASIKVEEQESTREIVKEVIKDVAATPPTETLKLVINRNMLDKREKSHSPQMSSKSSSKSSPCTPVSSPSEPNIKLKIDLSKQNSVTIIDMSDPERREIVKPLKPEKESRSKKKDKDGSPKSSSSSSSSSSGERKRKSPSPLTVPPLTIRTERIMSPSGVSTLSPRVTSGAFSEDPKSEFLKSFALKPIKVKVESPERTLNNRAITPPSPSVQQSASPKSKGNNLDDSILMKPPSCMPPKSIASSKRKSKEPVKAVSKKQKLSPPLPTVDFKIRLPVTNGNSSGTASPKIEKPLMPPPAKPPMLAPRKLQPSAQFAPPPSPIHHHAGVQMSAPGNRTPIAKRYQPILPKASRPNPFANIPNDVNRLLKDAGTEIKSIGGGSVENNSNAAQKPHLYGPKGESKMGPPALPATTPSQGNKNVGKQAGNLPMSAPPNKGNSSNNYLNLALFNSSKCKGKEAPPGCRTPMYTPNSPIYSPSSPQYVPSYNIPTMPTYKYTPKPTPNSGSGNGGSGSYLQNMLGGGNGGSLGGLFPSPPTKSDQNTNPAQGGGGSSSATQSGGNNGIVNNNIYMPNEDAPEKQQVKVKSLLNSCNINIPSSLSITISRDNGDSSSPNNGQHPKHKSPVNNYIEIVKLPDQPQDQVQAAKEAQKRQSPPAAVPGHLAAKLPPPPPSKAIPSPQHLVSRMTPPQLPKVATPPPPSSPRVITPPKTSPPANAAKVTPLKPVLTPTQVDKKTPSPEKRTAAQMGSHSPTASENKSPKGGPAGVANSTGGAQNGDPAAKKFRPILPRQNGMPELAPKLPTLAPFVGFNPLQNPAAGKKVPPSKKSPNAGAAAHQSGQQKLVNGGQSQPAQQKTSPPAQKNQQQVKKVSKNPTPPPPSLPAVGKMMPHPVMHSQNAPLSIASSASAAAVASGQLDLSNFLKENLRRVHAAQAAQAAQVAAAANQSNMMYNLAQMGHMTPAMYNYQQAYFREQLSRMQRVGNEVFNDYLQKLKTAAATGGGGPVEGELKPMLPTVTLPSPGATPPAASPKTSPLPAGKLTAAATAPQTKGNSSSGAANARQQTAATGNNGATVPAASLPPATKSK
Sequence of PRC1ΔPh (P26017 whole entry, stated change not applied, chain 2 of 3): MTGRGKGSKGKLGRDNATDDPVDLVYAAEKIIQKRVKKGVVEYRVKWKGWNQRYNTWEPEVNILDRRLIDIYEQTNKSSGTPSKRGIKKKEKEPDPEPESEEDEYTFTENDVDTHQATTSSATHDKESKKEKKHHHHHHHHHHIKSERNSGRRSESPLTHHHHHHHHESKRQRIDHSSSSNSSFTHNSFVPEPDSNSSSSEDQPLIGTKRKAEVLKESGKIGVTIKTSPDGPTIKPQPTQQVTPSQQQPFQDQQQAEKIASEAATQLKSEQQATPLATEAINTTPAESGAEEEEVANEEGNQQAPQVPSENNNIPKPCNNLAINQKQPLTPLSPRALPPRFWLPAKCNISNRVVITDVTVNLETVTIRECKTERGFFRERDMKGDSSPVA
Sequence of PRC1ΔPh (Q9VB08 whole entry, stated change not applied, chain 3 of 3): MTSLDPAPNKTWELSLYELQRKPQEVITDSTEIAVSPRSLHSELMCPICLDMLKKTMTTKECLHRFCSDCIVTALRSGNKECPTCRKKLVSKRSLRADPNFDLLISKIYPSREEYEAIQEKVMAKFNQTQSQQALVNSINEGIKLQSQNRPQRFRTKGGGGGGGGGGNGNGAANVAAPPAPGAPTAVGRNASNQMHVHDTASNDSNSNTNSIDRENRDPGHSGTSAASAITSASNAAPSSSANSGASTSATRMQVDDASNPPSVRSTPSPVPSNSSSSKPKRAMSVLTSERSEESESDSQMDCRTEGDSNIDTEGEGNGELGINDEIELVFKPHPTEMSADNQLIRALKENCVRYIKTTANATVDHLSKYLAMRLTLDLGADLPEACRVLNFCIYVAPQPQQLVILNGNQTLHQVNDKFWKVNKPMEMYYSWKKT

B1: vg PRE dsDNA (dsDNA)
DNA 1: CGGGTTGTCAAGAATTTTAACGGCCATTTCTGTGAGTGTGTGCGAGCTGCCAAGTGTGTGTGAGTGTGTTTGTGACAAACGCAAGCTCATGTAAGTGCTC
DNA 2: GAGCACTTACATGAGCTTGCGTTTGTCACAAACACACTCACACACACTTGGCAGCTCGCACACACTCACAGAAATGGCCGTTAAAATTCTTGACAACCCG
Kd (PRC2): 6.44 nM | Kd (PRC1ΔPh): 0.164 nM
